These results are taken from article PMC7972335.

Values joined by “and” are separate entries in the source; they are usually repeats but may differ in a detail not shown here. Identical values can stand only once.

The target in assay [1] is trypsin-digested S protein (extracellular domain of the SARS-CoV-2 S protein cleaved at S1/S2) (SARS-CoV-2). As to the kind of experiment: cryo-EM structure.
Assay [2] deals with trimeric extracellular domain of the S protein of SARS-CoV-2 (SARS-CoV-2) (UniProt P0DTC2). The assay can be described thus: cryo-EM structure; S protein incubated with PD of ACE2; three conformations.

Turning to “peptidase domain (PD) of ACE2 (domain or fragment)”, in assay [1], the percent of particles in conformation 1 (one PD bound) stood at 9.5%; the percent of particles in conformation 2 (two PD bound) turned out to be 84.5%; the percent of particles in conformation 3 (two PD bound) was found to be 6%; the stoichiometry N (PD per S(p) trimer) was 1 and 2. In assay [2], this substance showed a percent of particles in conformation 2 (one PD bound) of 24.4% and a percent of particles in conformation 3 (one PD bound) of 67.7%.
